Laboratory results reported in patent US20250249092A1 (TORAY INDUSTRIES, published 2025).

T1: CAPRIN-1 on the cell membrane surface of human cancer cells (human, UniProt Q14444 2-709)
T1 construct: whole, on cells; also called CAPRIN-1 protein
T1 sequence (looked up): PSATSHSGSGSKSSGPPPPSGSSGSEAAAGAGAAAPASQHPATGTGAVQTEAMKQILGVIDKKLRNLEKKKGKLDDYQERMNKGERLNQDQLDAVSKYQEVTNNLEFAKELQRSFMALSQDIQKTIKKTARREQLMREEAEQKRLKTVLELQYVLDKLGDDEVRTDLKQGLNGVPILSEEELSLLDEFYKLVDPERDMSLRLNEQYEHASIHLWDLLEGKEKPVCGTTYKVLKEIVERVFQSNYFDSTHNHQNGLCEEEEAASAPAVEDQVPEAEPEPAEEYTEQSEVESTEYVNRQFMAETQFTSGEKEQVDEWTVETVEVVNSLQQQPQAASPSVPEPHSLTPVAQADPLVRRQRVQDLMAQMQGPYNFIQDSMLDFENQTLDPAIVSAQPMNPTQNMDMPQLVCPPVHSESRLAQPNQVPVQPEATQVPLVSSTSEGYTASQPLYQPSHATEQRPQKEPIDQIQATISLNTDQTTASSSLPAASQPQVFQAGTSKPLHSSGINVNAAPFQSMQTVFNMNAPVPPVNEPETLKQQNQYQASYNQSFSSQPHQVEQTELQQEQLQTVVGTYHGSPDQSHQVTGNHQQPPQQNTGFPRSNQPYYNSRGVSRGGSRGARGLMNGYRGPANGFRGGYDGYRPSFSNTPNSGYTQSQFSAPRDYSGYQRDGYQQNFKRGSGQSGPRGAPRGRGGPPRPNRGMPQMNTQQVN

T2: CAPRIN-1 on the cell membrane surface of mouse cancer cells (mouse, UniProt Q60865 2-707)
T2 construct: whole, on cells; also called CAPRIN-1 protein
T2 sequence (looked up): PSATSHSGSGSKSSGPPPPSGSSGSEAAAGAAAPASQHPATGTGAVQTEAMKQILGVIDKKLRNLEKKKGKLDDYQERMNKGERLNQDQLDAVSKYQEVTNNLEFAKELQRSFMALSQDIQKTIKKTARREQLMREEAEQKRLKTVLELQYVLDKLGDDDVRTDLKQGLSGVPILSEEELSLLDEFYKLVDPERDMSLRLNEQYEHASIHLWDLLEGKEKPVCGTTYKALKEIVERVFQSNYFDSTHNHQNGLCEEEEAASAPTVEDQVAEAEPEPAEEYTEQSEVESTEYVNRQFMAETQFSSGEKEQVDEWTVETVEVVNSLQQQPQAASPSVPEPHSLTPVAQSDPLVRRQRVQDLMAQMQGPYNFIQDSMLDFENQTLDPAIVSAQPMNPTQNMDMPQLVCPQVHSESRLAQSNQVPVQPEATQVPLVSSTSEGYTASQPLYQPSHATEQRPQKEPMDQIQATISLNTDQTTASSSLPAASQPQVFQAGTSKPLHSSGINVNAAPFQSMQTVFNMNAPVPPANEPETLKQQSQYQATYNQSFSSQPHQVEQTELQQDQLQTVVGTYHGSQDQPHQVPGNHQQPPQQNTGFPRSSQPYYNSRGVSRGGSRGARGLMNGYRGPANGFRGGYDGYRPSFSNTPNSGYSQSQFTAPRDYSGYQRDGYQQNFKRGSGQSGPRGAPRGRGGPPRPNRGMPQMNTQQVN


Key:
[1] = biological target: T1, CAPRIN-1 on the cell membrane surface …; assay: BT474 cells, as shown in Example 5
[2] = biological target: T2, CAPRIN-1 on the cell membrane surface …; assay: 4T1 cells

binding result [1]	binding result [2]	Binder
binds		Conjugate 8 (antibody, human IgG1, V domains shown, humanized antibody #2 (human IgG1) + resiquimod, MC-Val-Cit-PAB linker) VH: EQSLVESGGGLVQPGGSLRLSCAASGFSLSSHSLGWVRQAPGKGLEWIGDIRSGGSAYYANWAKGRFTISRDNSKNTLYLQMNSLRAEDTAVYYCTRTNGPSDLTNRLDLWGQGTLVTVSS VL: QVLTQSPSSLSASVGDRVTINCQASQSLYNNENLAWFQQKPGKVPKRLIYGASTLASGVSSRFSGSGSGTEFTLTISSLQCEDFAIYYCLGEFSCGSADCFAFGGGTKVEIK
binds		Conjugate 22 (antibody, human IgG1, V domains shown, humanized antibody #2 (human IgG1) + resiquimod derivative, SATA and SMCC linkers) VH: EQSLVESGGGLVQPGGSLRLSCAASGFSLSSHSLGWVRQAPGKGLEWIGDIRSGGSAYYANWAKGRFTISRDNSKNTLYLQMNSLRAEDTAVYYCTRTNGPSDLTNRLDLWGQGTLVTVSS VL: QVLTQSPSSLSASVGDRVTINCQASQSLYNNENLAWFQQKPGKVPKRLIYGASTLASGVSSRFSGSGSGTEFTLTISSLQCEDFAIYYCLGEFSCGSADCFAFGGGTKVEIK
binds		Conjugate 26 (antibody, human IgG1, V domains shown, humanized antibody #6 (V regions of #2; human IgG1 S239D/I332E) + resiquimod derivative, SATA and SMCC linkers) VH: EQSLVESGGGLVQPGGSLRLSCAASGFSLSSHSLGWVRQAPGKGLEWIGDIRSGGSAYYANWAKGRFTISRDNSKNTLYLQMNSLRAEDTAVYYCTRTNGPSDLTNRLDLWGQGTLVTVSS VL: QVLTQSPSSLSASVGDRVTINCQASQSLYNNENLAWFQQKPGKVPKRLIYGASTLASGVSSRFSGSGSGTEFTLTISSLQCEDFAIYYCLGEFSCGSADCFAFGGGTKVEIK
	binds	Conjugate 34 (antibody, V domains shown, mouse chimeric antibody #2 (mouse IgG constant regions) + resiquimod derivative, SATA and SMCC linkers) VH: EQSLVESGGGLVQPGGSLRLSCAASGFSLSSHSLGWVRQAPGKGLEWIGDIRSGGSAYYANWAKGRFTISRDNSKNTLYLQMNSLRAEDTAVYYCTRTNGPSDLTNRLDLWGQGTLVTVSS VL: QVLTQSPSSLSASVGDRVTINCQASQSLYNNENLAWFQQKPGKVPKRLIYGASTLASGVSSRFSGSGSGTEFTLTISSLQCEDFAIYYCLGEFSCGSADCFAFGGGTKVEIK
	binds	Conjugate 30 (antibody, V domains shown, mouse chimeric antibody #2 (mouse IgG constant regions) + resiquimod, MC-Val-Cit-PAB linker) VH: EQSLVESGGGLVQPGGSLRLSCAASGFSLSSHSLGWVRQAPGKGLEWIGDIRSGGSAYYANWAKGRFTISRDNSKNTLYLQMNSLRAEDTAVYYCTRTNGPSDLTNRLDLWGQGTLVTVSS VL: QVLTQSPSSLSASVGDRVTINCQASQSLYNNENLAWFQQKPGKVPKRLIYGASTLASGVSSRFSGSGSGTEFTLTISSLQCEDFAIYYCLGEFSCGSADCFAFGGGTKVEIK
binds		Conjugate 12 (antibody, human IgG1, V domains shown, humanized antibody #6 (V regions of #2; human IgG1 S239D/I332E) + resiquimod, MC-Val-Cit-PAB linker) VH: EQSLVESGGGLVQPGGSLRLSCAASGFSLSSHSLGWVRQAPGKGLEWIGDIRSGGSAYYANWAKGRFTISRDNSKNTLYLQMNSLRAEDTAVYYCTRTNGPSDLTNRLDLWGQGTLVTVSS VL: QVLTQSPSSLSASVGDRVTINCQASQSLYNNENLAWFQQKPGKVPKRLIYGASTLASGVSSRFSGSGSGTEFTLTISSLQCEDFAIYYCLGEFSCGSADCFAFGGGTKVEIK
	binds	Conjugate 31 (antibody, V domains shown, mouse chimeric antibody #3 (mouse IgG constant regions) + resiquimod, MC-Val-Cit-PAB linker) VH: AVTLDESGGGLQTPGGGLSLVCKASGFTFSSFDMGWVRQAPGKGLEFVAQINDAGSRTWYATAVKGRATISRDNGQTTVRLQLNNLRAEDTGTYYCTRGSGYVGAGAIDAWGHGTEVIVS VL: AALTQPSSVSANPGETVKITCSGGSGYYGWYQQQKSPGSAPVTVIYQNDKRPSDIPSRFSGSGSGSTNTLTITGVQAEDEAVYFCGRYDSTDSGIFGAGTTLTVL
	binds	Conjugate 35 (antibody, V domains shown, mouse chimeric antibody #3 (mouse IgG constant regions) + resiquimod derivative, SATA and SMCC linkers) VH: AVTLDESGGGLQTPGGGLSLVCKASGFTFSSFDMGWVRQAPGKGLEFVAQINDAGSRTWYATAVKGRATISRDNGQTTVRLQLNNLRAEDTGTYYCTRGSGYVGAGAIDAWGHGTEVIVS VL: AALTQPSSVSANPGETVKITCSGGSGYYGWYQQQKSPGSAPVTVIYQNDKRPSDIPSRFSGSGSGSTNTLTITGVQAEDEAVYFCGRYDSTDSGIFGAGTTLTVL
	binds	Conjugate 29 (antibody, V domains shown, mouse chimeric antibody #1 (mouse IgG constant regions) + resiquimod, MC-Val-Cit-PAB linker) VH: AVTLDESGGGLQMSRGGLSLVCKASGFDFSSYQMNWIRQAPGKGLEFVAAINKFGNSTGHGAAVKGRVTISRDNGQSTVRLQLNNLRAEDTAIYFCTKHAYGYCGSGTWCAAGEIDAWGHGTEVIVSS VL: QAASTQPSSVSANPGETVEITCSGGGSYSYGWFQQKSPGSAPVTVIYYNNKRPSDIPSRFSGSKSGSTGTLTITGVQADDEAVYYCGSGDSTDTAVFGAGTTLTVLG
	binds	Conjugate 33 (antibody, V domains shown, mouse chimeric antibody #1 (mouse IgG constant regions) + resiquimod derivative, SATA and SMCC linkers) VH: AVTLDESGGGLQMSRGGLSLVCKASGFDFSSYQMNWIRQAPGKGLEFVAAINKFGNSTGHGAAVKGRVTISRDNGQSTVRLQLNNLRAEDTAIYFCTKHAYGYCGSGTWCAAGEIDAWGHGTEVIVSS VL: QAASTQPSSVSANPGETVEITCSGGGSYSYGWFQQKSPGSAPVTVIYYNNKRPSDIPSRFSGSKSGSTGTLTITGVQADDEAVYYCGSGDSTDTAVFGAGTTLTVLG
